Numbered stars: 1 amine (or outer) side, 2 acyl side, 3 side chain; on linkers, the order of the positions; unused ones are H or OH. Bridge positions count the residues as written; N and C are the ends. Square brackets hold non-standard residues; d marks the D form. Side chains are listed from the residue outwards. Ends that are not written are not given here. * marks the point of attachment. C20 diacid = O=C(O)CCCCCCCCCCCCCCCCCCC(=O)*; γGlu = O=C(O)[C@H](CCC(=O)[*:2])N[*:1]
B1: N^ε1-[(4S)-4-carboxy-4-[[(4S)-4-carboxy-4-(19-carboxynonadecanoylamino)butanoyl]amino]butanoyl]-[Glu14,Arg17,Pro21,Pro27,Arg35]-h-amylin (peptide)
peptide: K([γGlu-γGlu-C20 diacid])CNTATCATQRLAEFLRHSSPNFGAIPSSTNVGSRTY-NH2
modifications: disulfide 2-7; N-terminus assumed
SMILES: CC[C@H](C)[C@H](NC(=O)[C@H](C)NC(=O)CNC(=O)[C@H](Cc1ccccc1)NC(=O)[C@H](CC(N)=O)NC(=O)[C@@H]1CCCN1C(=O)[C@H](CO)NC(=O)[C@H](CO)NC(=O)[C@H](Cc1c[nH]cn1)NC(=O)[C@H](CCCNC(=N)N)NC(=O)[C@H](CC(C)C)NC(=O)[C@H](Cc1ccccc1)NC(=O)[C@H](CCC(=O)O)NC(=O)[C@H](C)NC(=O)[C@H](CC(C)C)NC(=O)[C@H](CCCNC(=N)N)NC(=O)[C@H](CCC(N)=O)NC(=O)[C@@H](NC(=O)[C@H](C)NC(=O)[C@@H]1CSSC[C@H](NC(=O)[C@@H](N)CCCCNC(=O)CC[C@H](NC(=O)CC[C@H](NC(=O)CCCCCCCCCCCCCCCCCCC(=O)O)C(=O)O)C(=O)O)C(=O)N[C@@H](CC(N)=O)C(=O)N[C@@H]([C@@H](C)O)C(=O)N[C@@H](C)C(=O)N[C@@H]([C@@H](C)O)C(=O)N1)[C@@H](C)O)C(=O)N1CCC[C@H]1C(=O)N[C@@H](CO)C(=O)N[C@@H](CO)C(=O)N[C@H](C(=O)N[C@@H](CC(N)=O)C(=O)N[C@H](C(=O)NCC(=O)N[C@@H](CO)C(=O)N[C@@H](CCCNC(=N)N)C(=O)N[C@H](C(=O)N[C@@H](Cc1ccc(O)cc1)C(N)=O)[C@@H](C)O)C(C)C)[C@@H](C)O
notes: also called compound 89
B2: N^ε1-[(4S)-4-carboxy-4-[[(4S)-4-carboxy-4-(19-carboxynonadecanoylamino)butanoyl]amino]butanoyl]-[Arg17,Pro21,Pro27,Pro31,Pro34,Arg35]-h-amylin (peptide)
peptide: K([γGlu-γGlu-C20 diacid])CNTATCATQRLANFLRHSSPNFGAIPSSTPVGPRTY-NH2
modifications: disulfide 2-7; N-terminus assumed
SMILES: CC[C@H](C)[C@H](NC(=O)[C@H](C)NC(=O)CNC(=O)[C@H](Cc1ccccc1)NC(=O)[C@H](CC(N)=O)NC(=O)[C@@H]1CCCN1C(=O)[C@H](CO)NC(=O)[C@H](CO)NC(=O)[C@H](Cc1c[nH]cn1)NC(=O)[C@H](CCCNC(=N)N)NC(=O)[C@H](CC(C)C)NC(=O)[C@H](Cc1ccccc1)NC(=O)[C@H](CC(N)=O)NC(=O)[C@H](C)NC(=O)[C@H](CC(C)C)NC(=O)[C@H](CCCNC(=N)N)NC(=O)[C@H](CCC(N)=O)NC(=O)[C@@H](NC(=O)[C@H](C)NC(=O)[C@@H]1CSSC[C@H](NC(=O)[C@@H](N)CCCCNC(=O)CC[C@H](NC(=O)CC[C@H](NC(=O)CCCCCCCCCCCCCCCCCCC(=O)O)C(=O)O)C(=O)O)C(=O)N[C@@H](CC(N)=O)C(=O)N[C@@H]([C@@H](C)O)C(=O)N[C@@H](C)C(=O)N[C@@H]([C@@H](C)O)C(=O)N1)[C@@H](C)O)C(=O)N1CCC[C@H]1C(=O)N[C@@H](CO)C(=O)N[C@@H](CO)C(=O)N[C@H](C(=O)N1CCC[C@H]1C(=O)N[C@H](C(=O)NCC(=O)N1CCC[C@H]1C(=O)N[C@@H](CCCNC(=N)N)C(=O)N[C@H](C(=O)N[C@@H](Cc1ccc(O)cc1)C(N)=O)[C@@H](C)O)C(C)C)[C@@H](C)O
B3: N^ε1-[(4S)-4-carboxy-4-[[(4S)-4-carboxy-4-(19-carboxynonadecanoylamino)butanoyl]amino]butanoyl]-[Glu14,Arg17,Pro21,Pro27,Pro34,Arg35]-h-amylin (peptide)
peptide: K([γGlu-γGlu-C20 diacid])CNTATCATQRLAEFLRHSSPNFGAIPSSTNVGPRTY-NH2
modifications: disulfide 2-7; N-terminus assumed
SMILES: CC[C@H](C)[C@H](NC(=O)[C@H](C)NC(=O)CNC(=O)[C@H](Cc1ccccc1)NC(=O)[C@H](CC(N)=O)NC(=O)[C@@H]1CCCN1C(=O)[C@H](CO)NC(=O)[C@H](CO)NC(=O)[C@H](Cc1c[nH]cn1)NC(=O)[C@H](CCCNC(=N)N)NC(=O)[C@H](CC(C)C)NC(=O)[C@H](Cc1ccccc1)NC(=O)[C@H](CCC(=O)O)NC(=O)[C@H](C)NC(=O)[C@H](CC(C)C)NC(=O)[C@H](CCCNC(=N)N)NC(=O)[C@H](CCC(N)=O)NC(=O)[C@@H](NC(=O)[C@H](C)NC(=O)[C@@H]1CSSC[C@H](NC(=O)[C@@H](N)CCCCNC(=O)CC[C@H](NC(=O)CC[C@H](NC(=O)CCCCCCCCCCCCCCCCCCC(=O)O)C(=O)O)C(=O)O)C(=O)N[C@@H](CC(N)=O)C(=O)N[C@@H]([C@@H](C)O)C(=O)N[C@@H](C)C(=O)N[C@@H]([C@@H](C)O)C(=O)N1)[C@@H](C)O)C(=O)N1CCC[C@H]1C(=O)N[C@@H](CO)C(=O)N[C@@H](CO)C(=O)N[C@H](C(=O)N[C@@H](CC(N)=O)C(=O)N[C@H](C(=O)NCC(=O)N1CCC[C@H]1C(=O)N[C@@H](CCCNC(=N)N)C(=O)N[C@H](C(=O)N[C@@H](Cc1ccc(O)cc1)C(N)=O)[C@@H](C)O)C(C)C)[C@@H](C)O
notes: also called compound 110
B4: N^ε1-[(4S)-4-carboxy-4-[[(4S)-4-carboxy-4-(19-carboxynonadecanoylamino)butanoyl]amino]butanoyl]-[Asp14,Arg17,Pro21,Pro27,Pro34,Arg35]-h-amylin (peptide)
peptide: K([γGlu-γGlu-C20 diacid])CNTATCATQRLADFLRHSSPNFGAIPSSTNVGPRTY-NH2
modifications: disulfide 2-7; N-terminus assumed
SMILES: CC[C@H](C)[C@H](NC(=O)[C@H](C)NC(=O)CNC(=O)[C@H](Cc1ccccc1)NC(=O)[C@H](CC(N)=O)NC(=O)[C@@H]1CCCN1C(=O)[C@H](CO)NC(=O)[C@H](CO)NC(=O)[C@H](Cc1c[nH]cn1)NC(=O)[C@H](CCCNC(=N)N)NC(=O)[C@H](CC(C)C)NC(=O)[C@H](Cc1ccccc1)NC(=O)[C@H](CC(=O)O)NC(=O)[C@H](C)NC(=O)[C@H](CC(C)C)NC(=O)[C@H](CCCNC(=N)N)NC(=O)[C@H](CCC(N)=O)NC(=O)[C@@H](NC(=O)[C@H](C)NC(=O)[C@@H]1CSSC[C@H](NC(=O)[C@@H](N)CCCCNC(=O)CC[C@H](NC(=O)CC[C@H](NC(=O)CCCCCCCCCCCCCCCCCCC(=O)O)C(=O)O)C(=O)O)C(=O)N[C@@H](CC(N)=O)C(=O)N[C@@H]([C@@H](C)O)C(=O)N[C@@H](C)C(=O)N[C@@H]([C@@H](C)O)C(=O)N1)[C@@H](C)O)C(=O)N1CCC[C@H]1C(=O)N[C@@H](CO)C(=O)N[C@@H](CO)C(=O)N[C@H](C(=O)N[C@@H](CC(N)=O)C(=O)N[C@H](C(=O)NCC(=O)N1CCC[C@H]1C(=O)N[C@@H](CCCNC(=N)N)C(=O)N[C@H](C(=O)N[C@@H](Cc1ccc(O)cc1)C(N)=O)[C@@H](C)O)C(C)C)[C@@H](C)O
notes: also called compound 130
B5: N^ε1-[(4S)-4-carboxy-4-[[(4S)-4-carboxy-4-(19-carboxynonadecanoylamino)butanoyl]amino]butanoyl]-[D-Asp14,Arg17,Pro21,Pro27,Arg35]-h-amylin (peptide)
peptide: K([γGlu-γGlu-C20 diacid])CNTATCATQRLA[dD]FLRHSSPNFGAIPSSTNVGSRTY-NH2
modifications: disulfide 2-7; N-terminus assumed
SMILES: CC[C@H](C)[C@H](NC(=O)[C@H](C)NC(=O)CNC(=O)[C@H](Cc1ccccc1)NC(=O)[C@H](CC(N)=O)NC(=O)[C@@H]1CCCN1C(=O)[C@H](CO)NC(=O)[C@H](CO)NC(=O)[C@H](Cc1c[nH]cn1)NC(=O)[C@H](CCCNC(=N)N)NC(=O)[C@H](CC(C)C)NC(=O)[C@H](Cc1ccccc1)NC(=O)[C@@H](CC(=O)O)NC(=O)[C@H](C)NC(=O)[C@H](CC(C)C)NC(=O)[C@H](CCCNC(=N)N)NC(=O)[C@H](CCC(N)=O)NC(=O)[C@@H](NC(=O)[C@H](C)NC(=O)[C@@H]1CSSC[C@H](NC(=O)[C@@H](N)CCCCNC(=O)CC[C@H](NC(=O)CC[C@H](NC(=O)CCCCCCCCCCCCCCCCCCC(=O)O)C(=O)O)C(=O)O)C(=O)N[C@@H](CC(N)=O)C(=O)N[C@@H]([C@@H](C)O)C(=O)N[C@@H](C)C(=O)N[C@@H]([C@@H](C)O)C(=O)N1)[C@@H](C)O)C(=O)N1CCC[C@H]1C(=O)N[C@@H](CO)C(=O)N[C@@H](CO)C(=O)N[C@H](C(=O)N[C@@H](CC(N)=O)C(=O)N[C@H](C(=O)NCC(=O)N[C@@H](CO)C(=O)N[C@@H](CCCNC(=N)N)C(=O)N[C@H](C(=O)N[C@@H](Cc1ccc(O)cc1)C(N)=O)[C@@H](C)O)C(C)C)[C@@H](C)O

Target: T1, human calcitonin receptor (human, UniProt P30988 25-474)
T1 sequence (looked up): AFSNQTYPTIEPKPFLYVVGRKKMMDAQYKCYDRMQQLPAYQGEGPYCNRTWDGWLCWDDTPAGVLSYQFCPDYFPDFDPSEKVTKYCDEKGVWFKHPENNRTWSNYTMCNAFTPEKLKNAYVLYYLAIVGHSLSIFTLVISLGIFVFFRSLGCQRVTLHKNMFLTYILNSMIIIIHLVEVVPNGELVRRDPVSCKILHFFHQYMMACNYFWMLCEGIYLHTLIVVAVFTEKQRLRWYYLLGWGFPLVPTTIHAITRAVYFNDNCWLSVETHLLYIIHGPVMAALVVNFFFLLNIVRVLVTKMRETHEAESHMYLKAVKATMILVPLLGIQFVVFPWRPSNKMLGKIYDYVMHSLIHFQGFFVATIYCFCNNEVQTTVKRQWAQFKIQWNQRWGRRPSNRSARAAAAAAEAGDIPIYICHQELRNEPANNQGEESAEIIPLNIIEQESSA
Test: cell-based or functional assay

Binder	Ratio hCT/hAmylin funct. [ratio]	hCTR funct. EC50 (pM)
B1	27.8	11200
B2	26	8660
B3	29.3	8160
B4	44.9	7280
B5	–	100000

Target: T2, human calcitonin receptor (human, UniProt P30988 25-474)
T2 sequence (looked up): T1 sequence (looked up)
Test: cell-based or functional assay

Binder	hCTR funct. EC50 (pM)
K([γGlu-γGlu-C20 diacid])CNTATCATQRLADFLRHSSPNFGAIPSSTNVGPETY-NH2 (disulfide 2-7 (inferred))	843
K([γGlu-C20 diacid])CNTATCATQRLADFLRHSSPNFGAIPSSTNVGPRTY-NH2 (disulfide 2-7 (inferred))	3640
K([γGlu-C20 diacid])CNTATCATQRLAEFLRHSSPNFGAIPSSTNVGSHTY-NH2 (disulfide 2-7 (inferred))	5580

Target: T3, human amylin receptor (amylin 3(a) receptor: human calcitonin receptor with RAMP-3) (human, UniProt P30988 25-474; O60896 24-148, limits assumed)
T3 sequence (looked up) 1: T1 sequence (looked up)
T3 sequence (looked up) 2: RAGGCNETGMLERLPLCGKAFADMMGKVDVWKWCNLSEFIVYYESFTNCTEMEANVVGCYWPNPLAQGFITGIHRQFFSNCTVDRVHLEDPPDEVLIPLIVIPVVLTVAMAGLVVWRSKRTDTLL
Test: cell-based or functional assay

Binder	Ratio hCT/hAmylin funct.	hAmylin-R funct. EC50 (pM)
K([γGlu-γGlu-C20 diacid])CNTATCATQRLADFLRHSSPNFGAIPSSTNVGPETY-NH2 (disulfide 2-7 (inferred))	5.3	159
K([γGlu-C20 diacid])CNTATCATQRLADFLRHSSPNFGAIPSSTNVGPRTY-NH2 (disulfide 2-7 (inferred))	–	146
K([γGlu-C20 diacid])CNTATCATQRLAEFLRHSSPNFGAIPSSTNVGSHTY-NH2 (disulfide 2-7 (inferred))	–	425

Target: T4, human amylin receptor (amylin 3(a) receptor: human calcitonin receptor with RAMP-3) (human, UniProt P30988 25-474; O60896 24-148, limits assumed)
T4 construct: whole, on cells; Whole cells in the luciferase assay (Assay II a); also called hAmylin-R; hAmylinR
T4 sequence (looked up) 1: T1 sequence (looked up)
T4 sequence (looked up) 2: T3 sequence (looked up) 2
Test: SPA competition binding on membranes of BHK cells with human calcitonin receptor + RAMP-3; displacement of 125I-rat amylin (Assay V)
Method in brief: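 Cell membranes were prepared by homogenisation in Na-HEPES/EDTA buffer, pH 7.4, and stored at −80° C. They were then coupled to SPA beads at 35 ng/μL final and exposed to compounds in assay buffer containing CaCl2, MgCl₂, OA and Tween20. After 120 min at 25° C, plates were counted and IC₅₀ derived.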

Binder	IC50 [nM]
B1	1.16
B2	0.88
B3	0.326
B4	0.453
B5	0.365

— patent publication US20140087995A1 (published 2014)
